Values belong to the binder of their own block, whether it stands above or below them.
Legend:
Human plasma fibronectin = biological target: T1, Human plasma fibronectin (human, UniProt P02751 32-2477, Alexa^488 label where used as FN^488); test: Alexa488-fibronectin added to cell-free wells coated with 400 nM mimetic; fluorescence after 20 h
T1 construct: Used coated on plastic at 10 nM, or soluble at 10 µg/ml, unlabeled or Alexa488-labeled; also called full-length fibronectin; FN

[1] = biological target: T2, FITC-labeled type I collagen (rat, UniProt P02454 152-1207; P02466 86-1125, FITC label); test: FITC-collagen I added to cell-free, fibronectin-free wells coated with 400 nM mimetic; fluorescence after 20 h
T2 construct: also called FITC-collagen I; collagen I
Description: FIGS. 14A-14C show collagen I deposition by cells adherent to matrix mimetics. FN-null MEFs were seeded (3.0×10⁴ cells/cm²) on tissue culture plates pre-coated with matrix mimetics (400 nM). Four hours after seeding, cells were treated with fibronectin (10 μg/ml) and FITC-collagen I (10 μg/ml) for 20 h. In FIG. 14A, control wells received either FITC-collagen I only (+cell, −FN) or FITC collagen I in the absence of both cells and fibronectin (−cells, −FN). […] In FIG. 14B, cells were processed for immunofluorescence microscopy and stained using an antibody against fibronectin. Images represent 1 of 3 experiments. Bar=10 μm. Four hours after seeding, cells were treated with fibronectin (10 μg/ml) and FITC-collagen I ([…]) in the presence of either R1R2 (250 nM) or FNIII11C (250 nM).
The deposition of collagen I into the ECM is dependent on the co-assembly of a fibronectin matrix (Sottile et al., “Fibronectin Polymerization Regulates the Composition and Stability of Extracellular Matrix Fibrils and Cell-Matrix Adhesions,” Mol. Biol. Cell. 13(10):3546-3559 (2002), which is hereby incorporated by reference in its entirety). […] FITC-collagen I deposition was quantified 20 h after fibronectin and collagen addition.

[2] = biological target: T3, α5β1 integrin on mouse embryonic fibronectin-null fibroblasts (mouse, UniProt P11688 45-1053; P09055 21-798); test: immunofluorescence of α5 integrin clustering in FN-null MEFs adherent for 4 h to coated substrate
T3 construct: whole, on cells; Endogenous integrin on FN-null MEFs; also called α5β1 integrins; a5β1 integrin
Description: FIGS. 16A-16C show substrate-dependent ligation and clustering of α5β1 integrins. FN-null MEFs were seeded at a density of 2.5×10³ cells/cm² (FIG. 16A) or 3×10⁴ cells/cm² (FIG. 16B) onto tissue culture plates precoated with 400 nM of the various fibronectin matrix mimetics or 10 nM full-length fibronectin and allowed to adhere and spread for 4 h. In FIG. 16A, cells were processed for immunofluorescence microscopy and stained using antibodies against α5 integrin and vinculin. Images represent 1 of 3 experiments. Bar=10 μm. In FIG. 16B, cell surface proteins bound to the adhesive substrates were cross-linked using bis(sulfosuccinimidyl)suberate (BS³). Unbound proteins were extracted and […]. α5 integrins were analyzed by immunoblotting.
The preceding Examples therefore indicate that upon adhesion to GST/III1H,8-10, α5β1 integrins preferentially engage the adhesive substrate instead of soluble fibronectin, thus inhibiting the initiation of the matrix assembly process. To assess α5β1 integrin clustering in response to substrate adhesion, FN-null MEFs were allowed to adhere and spread for 4 h on plates pre-coated with saturating densities of matrix mimetics in the absence of soluble fibronectin. α5β1 integrins were visualized by immunofluorescence microscopy. […]

T2 sequence (P02454 152-1207, chain 1 of 2): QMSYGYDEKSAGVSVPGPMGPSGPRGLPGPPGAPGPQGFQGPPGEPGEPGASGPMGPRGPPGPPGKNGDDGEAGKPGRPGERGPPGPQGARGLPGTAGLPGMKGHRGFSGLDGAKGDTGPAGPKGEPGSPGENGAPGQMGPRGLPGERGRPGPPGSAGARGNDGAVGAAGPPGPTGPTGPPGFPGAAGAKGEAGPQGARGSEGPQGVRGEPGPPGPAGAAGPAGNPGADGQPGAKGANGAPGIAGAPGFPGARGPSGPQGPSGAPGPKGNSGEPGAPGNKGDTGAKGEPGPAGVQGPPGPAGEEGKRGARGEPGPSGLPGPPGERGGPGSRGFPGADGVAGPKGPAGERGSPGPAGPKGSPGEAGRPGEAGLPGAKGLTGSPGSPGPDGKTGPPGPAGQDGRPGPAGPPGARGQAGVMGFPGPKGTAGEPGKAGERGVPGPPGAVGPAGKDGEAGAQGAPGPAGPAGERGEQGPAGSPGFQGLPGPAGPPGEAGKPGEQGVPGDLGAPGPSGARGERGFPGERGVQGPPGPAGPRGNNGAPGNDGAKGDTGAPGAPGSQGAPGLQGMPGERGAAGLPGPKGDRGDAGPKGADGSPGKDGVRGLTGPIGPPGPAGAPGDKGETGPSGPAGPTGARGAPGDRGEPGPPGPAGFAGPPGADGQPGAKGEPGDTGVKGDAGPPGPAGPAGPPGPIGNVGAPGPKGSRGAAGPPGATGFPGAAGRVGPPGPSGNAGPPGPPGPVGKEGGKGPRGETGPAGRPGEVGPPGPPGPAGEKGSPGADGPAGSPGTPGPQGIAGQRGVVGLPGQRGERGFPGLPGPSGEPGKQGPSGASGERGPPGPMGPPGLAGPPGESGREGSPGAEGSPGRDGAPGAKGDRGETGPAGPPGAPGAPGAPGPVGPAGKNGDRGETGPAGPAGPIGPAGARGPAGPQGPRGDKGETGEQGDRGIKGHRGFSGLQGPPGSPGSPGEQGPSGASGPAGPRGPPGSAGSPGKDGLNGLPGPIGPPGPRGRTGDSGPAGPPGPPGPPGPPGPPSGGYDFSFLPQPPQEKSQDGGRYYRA
T2 sequence (P02466 86-1125, chain 2 of 2): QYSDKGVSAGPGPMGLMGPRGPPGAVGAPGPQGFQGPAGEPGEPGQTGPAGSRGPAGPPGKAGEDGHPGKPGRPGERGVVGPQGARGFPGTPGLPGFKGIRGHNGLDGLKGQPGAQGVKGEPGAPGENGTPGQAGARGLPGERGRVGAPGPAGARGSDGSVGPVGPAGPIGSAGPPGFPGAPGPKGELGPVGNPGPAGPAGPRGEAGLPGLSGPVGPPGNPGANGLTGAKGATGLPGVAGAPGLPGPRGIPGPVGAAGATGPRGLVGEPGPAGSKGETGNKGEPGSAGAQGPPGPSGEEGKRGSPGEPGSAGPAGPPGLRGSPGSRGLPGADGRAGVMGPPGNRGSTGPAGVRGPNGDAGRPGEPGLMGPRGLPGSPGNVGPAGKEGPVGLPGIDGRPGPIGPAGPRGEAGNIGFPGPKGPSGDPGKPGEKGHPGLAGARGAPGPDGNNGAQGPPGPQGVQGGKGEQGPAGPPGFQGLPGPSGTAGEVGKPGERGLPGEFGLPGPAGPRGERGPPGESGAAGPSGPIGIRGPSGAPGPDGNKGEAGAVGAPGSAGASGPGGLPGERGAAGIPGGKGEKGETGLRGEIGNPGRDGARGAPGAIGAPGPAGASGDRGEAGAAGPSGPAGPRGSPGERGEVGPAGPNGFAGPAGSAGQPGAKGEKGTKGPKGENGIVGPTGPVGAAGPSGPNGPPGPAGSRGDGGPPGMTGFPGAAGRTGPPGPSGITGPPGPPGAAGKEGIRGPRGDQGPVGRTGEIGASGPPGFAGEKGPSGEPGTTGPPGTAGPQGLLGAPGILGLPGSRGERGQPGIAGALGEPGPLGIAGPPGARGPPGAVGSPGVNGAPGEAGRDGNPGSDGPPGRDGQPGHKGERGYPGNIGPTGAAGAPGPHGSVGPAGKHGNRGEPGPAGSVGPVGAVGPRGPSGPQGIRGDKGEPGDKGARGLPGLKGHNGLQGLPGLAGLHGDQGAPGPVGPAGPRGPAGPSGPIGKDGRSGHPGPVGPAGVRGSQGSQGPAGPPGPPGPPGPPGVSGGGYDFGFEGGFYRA
T1 sequence (P02751 other isoform, or with tags, fused parts or gaps): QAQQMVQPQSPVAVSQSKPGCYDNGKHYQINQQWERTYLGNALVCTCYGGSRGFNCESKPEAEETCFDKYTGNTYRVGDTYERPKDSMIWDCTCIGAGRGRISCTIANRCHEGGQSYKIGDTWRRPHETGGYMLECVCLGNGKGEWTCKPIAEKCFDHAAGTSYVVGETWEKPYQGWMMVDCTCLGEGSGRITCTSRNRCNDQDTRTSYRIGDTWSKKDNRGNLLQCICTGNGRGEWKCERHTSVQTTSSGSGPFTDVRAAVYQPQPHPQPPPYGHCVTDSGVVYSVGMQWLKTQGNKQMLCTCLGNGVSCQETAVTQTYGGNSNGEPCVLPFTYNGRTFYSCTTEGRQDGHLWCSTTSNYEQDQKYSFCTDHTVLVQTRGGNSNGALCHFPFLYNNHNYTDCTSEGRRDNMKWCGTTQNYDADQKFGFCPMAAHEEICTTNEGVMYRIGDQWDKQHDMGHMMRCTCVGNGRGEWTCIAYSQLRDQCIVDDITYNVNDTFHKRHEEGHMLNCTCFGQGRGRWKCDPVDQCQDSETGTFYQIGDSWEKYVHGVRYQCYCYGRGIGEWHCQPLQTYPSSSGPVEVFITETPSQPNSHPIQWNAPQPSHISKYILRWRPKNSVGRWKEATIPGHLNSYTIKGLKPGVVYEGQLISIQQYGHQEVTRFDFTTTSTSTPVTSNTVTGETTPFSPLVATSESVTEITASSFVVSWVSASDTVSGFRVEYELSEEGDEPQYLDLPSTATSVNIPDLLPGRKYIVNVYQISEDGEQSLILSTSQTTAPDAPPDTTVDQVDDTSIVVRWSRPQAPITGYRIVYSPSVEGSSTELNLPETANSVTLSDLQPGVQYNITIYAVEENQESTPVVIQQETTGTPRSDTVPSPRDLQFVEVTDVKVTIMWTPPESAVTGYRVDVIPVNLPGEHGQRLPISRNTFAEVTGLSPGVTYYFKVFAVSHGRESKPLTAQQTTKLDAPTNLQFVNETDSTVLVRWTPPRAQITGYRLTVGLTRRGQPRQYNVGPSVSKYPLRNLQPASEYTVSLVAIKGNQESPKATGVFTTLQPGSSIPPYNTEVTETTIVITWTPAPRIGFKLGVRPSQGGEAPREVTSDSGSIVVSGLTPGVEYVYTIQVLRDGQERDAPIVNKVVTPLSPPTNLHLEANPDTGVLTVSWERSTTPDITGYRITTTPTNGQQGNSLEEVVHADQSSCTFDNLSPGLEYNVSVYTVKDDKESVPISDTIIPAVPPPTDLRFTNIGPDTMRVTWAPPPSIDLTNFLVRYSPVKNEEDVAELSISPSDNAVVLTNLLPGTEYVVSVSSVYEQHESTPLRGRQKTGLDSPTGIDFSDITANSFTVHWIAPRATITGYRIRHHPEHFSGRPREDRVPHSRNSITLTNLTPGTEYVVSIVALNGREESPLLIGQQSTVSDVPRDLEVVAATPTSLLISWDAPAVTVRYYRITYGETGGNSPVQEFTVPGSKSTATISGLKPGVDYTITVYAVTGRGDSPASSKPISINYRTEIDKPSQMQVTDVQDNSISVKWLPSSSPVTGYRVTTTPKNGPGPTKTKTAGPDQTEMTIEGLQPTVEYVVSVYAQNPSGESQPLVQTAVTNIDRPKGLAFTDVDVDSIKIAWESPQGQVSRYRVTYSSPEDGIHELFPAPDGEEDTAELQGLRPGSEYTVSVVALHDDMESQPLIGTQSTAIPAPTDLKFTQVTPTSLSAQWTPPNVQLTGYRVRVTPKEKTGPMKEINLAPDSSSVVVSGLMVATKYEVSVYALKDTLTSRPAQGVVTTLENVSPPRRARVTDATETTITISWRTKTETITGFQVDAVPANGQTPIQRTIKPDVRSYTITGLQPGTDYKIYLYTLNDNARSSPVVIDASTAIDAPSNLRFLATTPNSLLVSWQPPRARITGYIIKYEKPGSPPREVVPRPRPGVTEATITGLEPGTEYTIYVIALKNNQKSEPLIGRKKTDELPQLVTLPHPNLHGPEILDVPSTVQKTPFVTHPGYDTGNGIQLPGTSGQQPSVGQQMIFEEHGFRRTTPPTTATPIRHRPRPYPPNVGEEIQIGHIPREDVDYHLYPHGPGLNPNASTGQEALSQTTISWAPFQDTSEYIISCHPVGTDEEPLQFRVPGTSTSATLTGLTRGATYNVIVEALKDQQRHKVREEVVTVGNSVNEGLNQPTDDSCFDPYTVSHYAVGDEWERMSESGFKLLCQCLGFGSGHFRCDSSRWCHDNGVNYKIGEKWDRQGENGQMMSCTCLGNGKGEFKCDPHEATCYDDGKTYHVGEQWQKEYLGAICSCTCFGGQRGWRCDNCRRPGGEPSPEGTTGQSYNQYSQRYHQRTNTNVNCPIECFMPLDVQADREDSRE

binding result (Human plasma fibronectin): no binding (tested: 10 µg/ml)
binding result [1]: no binding (tested: 10 µg/ml)
B1: GST/III1H,8,10 (other)
chain: IQWNAPQPSHISKYILRWRPKNSVGRWKEATIPGHLNSYTIKGLKPGVVYEGQLISIQQYGHQEVTRFDFTTTSTSTAVPPPTDLRFTNIGPDTMRVTWAPPPSIDLTNFLVRYSPVKNEEDVAELSISPSDNAVVLTNLLPGTEYVVSVSSVYEQHESTPLRGRQKTVSDVPRDLEVVAATPTSLLISWDAPAVTVRYYRITYGETGGNSPVQEFTVPGSKSTATISGLKPGVDYTITVYAVTGRGDSPASSKPISI
notes: Coated on tissue culture plastic in the assays; also called FNIII1H,8,10; not shown: glutathione S-transferase (GST) tag encoded by vector pGEX-2T (Amersham Biosciences)

binding result [2]: no binding (tested: 400 nM coating)
binding result (Human plasma fibronectin): no binding (tested: 10 µg/ml)
binding result [1]: no binding (tested: 10 µg/ml)
B2: GST/III1H,8^RGD (other)
chain: IQWNAPQPSHISKYILRWRPKNSVGRWKEATIPGHLNSYTIKGLKPGVVYEGQLISIQQYGHQEVTRFDFTTTSTSTAVPPPTDLRFTNIGPDTMRVTWAPPPSIDLTNFLVRYSPVKNEEDVAELSISPSDNAVVLTNLLPGTEYVVSVSSVYGRGDSPASSTPLRGRQKT
notes: Coated on tissue culture plastic in the assays; also called FNIII1H,8^RGD; not shown: glutathione S-transferase (GST) tag encoded by vector pGEX-2T (Amersham Biosciences)
